Measurements: patent US9539225B2, “Anemia of cancer improving/prophylactic agent” (SBI Pharmaceuticals Co., Ltd., priority 2011, dated 2017)

Tested on: person suffering from chronic lymphatic leukemia (cancerous anemia)
Text: The white blood cell count, the red blood cell count, the hemoglobin, and the blood platelet count before and after treatment are shown in Table 3 below.

Substance: Rituxan: anticancer drug used to treat chronic lymphatic leukemia
- White blood cell count (2010 Nov. 22, after one cycle of Rituxan begun Nov. 15, 2010, before ALA, 2010 Jan. 13 value 16.48): 1560 µL⁻¹
- Anemia as side effect, result in words (human, in vivo): anemia progressed as a side effect
- Blood platelet count (human, in vivo): 101000 µL⁻¹
- Hemoglobin (human, in vivo): 9.20 g/dL
- Red blood cell count (human, in vivo): 2.8e+06 µL⁻¹
